{
  "source": "paper PMC11209618",
  "key": {"[1]": {"target": "voltage-gated sodium channel Nav1.4 (UniProt P35499)", "sequence (P35499 whole entry)": "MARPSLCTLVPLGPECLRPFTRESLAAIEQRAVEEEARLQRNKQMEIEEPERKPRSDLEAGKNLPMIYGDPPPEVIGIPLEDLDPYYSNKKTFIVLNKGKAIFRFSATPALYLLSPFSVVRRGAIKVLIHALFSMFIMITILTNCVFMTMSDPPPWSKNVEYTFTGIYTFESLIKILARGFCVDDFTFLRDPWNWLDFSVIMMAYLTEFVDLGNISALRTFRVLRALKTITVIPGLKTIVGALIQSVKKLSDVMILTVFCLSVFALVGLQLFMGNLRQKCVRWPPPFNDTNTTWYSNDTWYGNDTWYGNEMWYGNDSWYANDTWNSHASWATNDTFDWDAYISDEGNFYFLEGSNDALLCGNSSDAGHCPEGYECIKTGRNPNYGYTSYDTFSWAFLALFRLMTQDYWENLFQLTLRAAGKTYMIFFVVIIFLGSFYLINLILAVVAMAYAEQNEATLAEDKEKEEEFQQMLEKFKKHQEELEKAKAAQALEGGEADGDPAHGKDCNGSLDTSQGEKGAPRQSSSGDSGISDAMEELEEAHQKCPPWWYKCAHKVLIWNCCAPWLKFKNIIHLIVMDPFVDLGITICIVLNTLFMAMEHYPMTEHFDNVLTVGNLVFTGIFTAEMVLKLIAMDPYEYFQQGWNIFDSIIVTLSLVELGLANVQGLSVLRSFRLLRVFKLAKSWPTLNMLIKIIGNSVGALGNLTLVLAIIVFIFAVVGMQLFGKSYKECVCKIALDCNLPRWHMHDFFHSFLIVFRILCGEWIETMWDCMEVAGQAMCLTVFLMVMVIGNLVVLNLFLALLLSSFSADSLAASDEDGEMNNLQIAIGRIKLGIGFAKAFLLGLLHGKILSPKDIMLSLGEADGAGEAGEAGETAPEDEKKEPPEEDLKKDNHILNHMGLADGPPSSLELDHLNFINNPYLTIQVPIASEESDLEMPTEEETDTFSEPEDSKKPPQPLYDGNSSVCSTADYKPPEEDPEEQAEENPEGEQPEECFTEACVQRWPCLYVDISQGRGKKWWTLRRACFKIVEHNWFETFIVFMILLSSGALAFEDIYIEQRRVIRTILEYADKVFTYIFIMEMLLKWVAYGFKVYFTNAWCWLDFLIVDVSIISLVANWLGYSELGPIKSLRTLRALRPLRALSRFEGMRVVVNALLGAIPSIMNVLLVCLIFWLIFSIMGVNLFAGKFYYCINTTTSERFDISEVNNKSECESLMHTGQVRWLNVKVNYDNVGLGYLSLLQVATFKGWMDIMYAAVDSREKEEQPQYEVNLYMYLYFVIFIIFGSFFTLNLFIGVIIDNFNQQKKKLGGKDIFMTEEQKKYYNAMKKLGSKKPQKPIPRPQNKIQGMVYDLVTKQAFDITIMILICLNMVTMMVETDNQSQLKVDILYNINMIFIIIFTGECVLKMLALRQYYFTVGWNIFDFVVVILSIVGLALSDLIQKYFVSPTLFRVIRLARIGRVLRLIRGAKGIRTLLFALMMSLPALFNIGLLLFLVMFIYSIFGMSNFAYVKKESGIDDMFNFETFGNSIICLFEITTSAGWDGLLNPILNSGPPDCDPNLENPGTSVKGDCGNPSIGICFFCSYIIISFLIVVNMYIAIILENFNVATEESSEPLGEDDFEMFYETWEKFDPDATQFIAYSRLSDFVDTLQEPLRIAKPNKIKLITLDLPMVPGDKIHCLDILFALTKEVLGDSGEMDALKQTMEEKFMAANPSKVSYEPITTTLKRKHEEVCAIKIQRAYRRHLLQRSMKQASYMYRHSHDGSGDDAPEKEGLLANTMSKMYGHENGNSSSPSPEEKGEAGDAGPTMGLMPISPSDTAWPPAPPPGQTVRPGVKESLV"}, "[2]": {"target": "voltage-gated sodium channel Nav1.7 (UniProt Q15858)", "sequence (Q15858 whole entry)": "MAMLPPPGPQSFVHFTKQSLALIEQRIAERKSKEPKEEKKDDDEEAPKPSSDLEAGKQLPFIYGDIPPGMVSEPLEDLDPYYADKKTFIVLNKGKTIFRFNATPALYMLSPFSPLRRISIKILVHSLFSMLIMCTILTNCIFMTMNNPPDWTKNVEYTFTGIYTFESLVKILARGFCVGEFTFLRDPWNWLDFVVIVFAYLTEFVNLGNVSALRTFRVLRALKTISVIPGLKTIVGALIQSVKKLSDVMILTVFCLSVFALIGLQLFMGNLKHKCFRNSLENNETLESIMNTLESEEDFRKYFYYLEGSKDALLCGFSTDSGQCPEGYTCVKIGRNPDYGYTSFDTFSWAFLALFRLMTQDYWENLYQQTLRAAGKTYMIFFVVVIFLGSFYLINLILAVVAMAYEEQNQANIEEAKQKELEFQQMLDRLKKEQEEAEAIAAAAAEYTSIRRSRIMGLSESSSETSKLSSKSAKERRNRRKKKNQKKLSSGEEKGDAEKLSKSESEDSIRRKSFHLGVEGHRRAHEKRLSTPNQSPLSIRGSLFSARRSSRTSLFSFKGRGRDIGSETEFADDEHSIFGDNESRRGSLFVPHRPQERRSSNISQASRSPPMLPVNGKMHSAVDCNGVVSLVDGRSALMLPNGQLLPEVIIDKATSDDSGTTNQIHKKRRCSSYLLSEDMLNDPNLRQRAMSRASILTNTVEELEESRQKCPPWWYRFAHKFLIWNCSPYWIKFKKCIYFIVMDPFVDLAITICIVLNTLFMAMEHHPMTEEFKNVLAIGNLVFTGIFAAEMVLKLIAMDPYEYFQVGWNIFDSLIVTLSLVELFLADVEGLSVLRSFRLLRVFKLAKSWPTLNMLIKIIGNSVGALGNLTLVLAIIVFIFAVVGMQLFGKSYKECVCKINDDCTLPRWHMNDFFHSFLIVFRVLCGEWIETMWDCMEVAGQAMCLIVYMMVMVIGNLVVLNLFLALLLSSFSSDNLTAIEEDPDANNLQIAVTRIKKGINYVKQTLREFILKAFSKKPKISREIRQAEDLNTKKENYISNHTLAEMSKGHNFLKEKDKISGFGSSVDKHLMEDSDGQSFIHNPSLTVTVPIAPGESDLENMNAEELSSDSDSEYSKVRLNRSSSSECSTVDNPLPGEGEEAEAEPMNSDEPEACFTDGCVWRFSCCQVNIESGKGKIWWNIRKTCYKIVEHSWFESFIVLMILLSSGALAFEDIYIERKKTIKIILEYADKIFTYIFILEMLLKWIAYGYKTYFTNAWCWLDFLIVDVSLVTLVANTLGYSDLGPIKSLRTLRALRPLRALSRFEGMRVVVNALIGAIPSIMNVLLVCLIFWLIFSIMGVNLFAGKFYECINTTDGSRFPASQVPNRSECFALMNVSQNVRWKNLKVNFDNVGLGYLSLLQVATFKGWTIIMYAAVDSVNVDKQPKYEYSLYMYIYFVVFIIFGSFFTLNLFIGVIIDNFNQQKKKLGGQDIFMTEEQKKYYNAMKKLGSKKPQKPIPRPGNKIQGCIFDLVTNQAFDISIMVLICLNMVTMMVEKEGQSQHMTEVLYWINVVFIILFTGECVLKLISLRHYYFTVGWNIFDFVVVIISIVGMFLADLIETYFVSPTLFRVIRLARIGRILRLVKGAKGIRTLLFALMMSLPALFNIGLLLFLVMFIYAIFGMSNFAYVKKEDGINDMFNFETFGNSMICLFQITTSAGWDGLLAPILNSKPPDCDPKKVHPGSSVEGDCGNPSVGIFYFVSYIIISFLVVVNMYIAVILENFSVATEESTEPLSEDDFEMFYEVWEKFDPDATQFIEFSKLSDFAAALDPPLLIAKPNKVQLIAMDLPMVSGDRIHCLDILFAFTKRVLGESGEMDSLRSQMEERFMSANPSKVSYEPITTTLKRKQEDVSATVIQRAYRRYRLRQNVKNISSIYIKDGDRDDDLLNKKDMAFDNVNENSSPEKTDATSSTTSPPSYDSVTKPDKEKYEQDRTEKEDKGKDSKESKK"}, "[3]": {"target": "voltage-gated sodium channel Nav1.1 (UniProt P35498)"}, "[4]": {"target": "voltage-gated sodium channel Nav1.2 (UniProt Q99250)"}, "[5]": {"target": "voltage-gated sodium channel Nav1.3 (UniProt Q9NY46)"}, "[6]": {"target": "voltage-gated sodium channel Nav1.4 (UniProt P35499)", "remark": "listed apart in the source"}, "[7]": {"target": "voltage-gated sodium channel Nav1.5 (UniProt Q14524)"}, "[8]": {"target": "voltage-gated sodium channel Nav1.6 (UniProt Q9UQD0)"}, "[9]": {"target": "voltage-gated sodium channel Nav1.7 (UniProt Q15858)", "remark": "listed apart in the source"}},
  "data": [
    {"substance": "Ts3 toxin from Tityus serrulatus venom (natural protein)", "values": [
      {"measurement": "increase of the fast inactivation time constant (Δτ) of Nav1.4 currents recorded at 0 mV, whole-cell patch clamp, 200 nM Ts3", "setting": "[1]", "value": 4.82, "unit": "ms"},
      {"measurement": "increase of the persistent current (ΔIPers) of Nav1.4, whole-cell patch clamp, 200 nM Ts3", "setting": "[1]", "value": 3.1, "unit": "%"},
      {"measurement": "shift of the half-maximal activation voltage (ΔV1/2) of Nav1.4, whole-cell patch clamp, 200 nM Ts3", "setting": "[1]", "value": -4.15, "unit": "mV"},
      {"measurement": "shift of the half-maximal steady-state inactivation voltage (ΔV1/2h) of Nav1.4, whole-cell patch clamp, 200 nM Ts3", "setting": "[1]", "value": 2.03, "unit": "mV"},
      {"measurement": "delay of fast inactivation of Nav1.7 currents recorded at 0 mV, whole-cell patch clamp, 200 nM Ts3", "setting": "[2]", "value": 9.37, "unit": "ms"}
    ]},
    {"substance": "Tst3 toxin from Tityus stigmurus venom (from UniProt P0C8X5 1-64) (natural protein)", "values": [
      {"measurement": "increase of the fast inactivation time constant (Δτ) of Nav1.4 currents recorded at 0 mV, two-step protocol of the Tst3/Ts3 comparison, whole-cell patch clamp, 200 nM Tst3", "setting": "[1]", "value": 6.09, "unit": "ms"},
      {"measurement": "increase of the persistent current (ΔIPers) of Nav1.4, whole-cell patch clamp, 200 nM Tst3", "setting": "[1]", "value": 4.4, "unit": "%"},
      {"measurement": "shift of the half-maximal activation voltage (ΔV1/2) of Nav1.4, whole-cell patch clamp, 200 nM Tst3", "setting": "[1]", "value": -5.19, "unit": "mV"},
      {"measurement": "shift of the half-maximal steady-state inactivation voltage (ΔV1/2h) of Nav1.4, whole-cell patch clamp, 200 nM Tst3", "setting": "[1]", "value": 1.22, "unit": "mV"},
      {"measurement": "increase of the fast inactivation time constant (Δτ) of Nav1.1, whole-cell patch clamp, 200 nM Tst3", "setting": "[3]", "value": 5.71, "unit": "ms"},
      {"measurement": "shift of the half-maximal activation voltage (ΔV1/2) of Nav1.1, whole-cell patch clamp, 200 nM Tst3", "setting": "[3]", "value": -7.15, "unit": "mV"},
      {"measurement": "increase of the fast inactivation time constant (Δτ) of Nav1.2, whole-cell patch clamp, 200 nM Tst3", "setting": "[4]", "value": 9.17, "unit": "ms"},
      {"measurement": "shift of the half-maximal activation voltage (ΔV1/2) of Nav1.2, whole-cell patch clamp, 200 nM Tst3", "setting": "[4]", "value": -9.02, "unit": "mV"},
      {"measurement": "increase of the fast inactivation time constant (Δτ) of Nav1.3, whole-cell patch clamp, 200 nM Tst3", "setting": "[5]", "value": 6.87, "unit": "ms"},
      {"measurement": "shift of the half-maximal activation voltage (ΔV1/2) of Nav1.3, whole-cell patch clamp, 200 nM Tst3", "setting": "[5]", "value": -8.68, "unit": "mV"},
      {"measurement": "increase of the fast inactivation time constant (Δτ) of Nav1.4, activation protocol of the isoform screen, whole-cell patch clamp, 200 nM Tst3", "setting": "[6]", "value": 5.61, "unit": "ms"},
      {"measurement": "increase of the fast inactivation time constant (Δτ) of Nav1.5, whole-cell patch clamp, 200 nM Tst3", "setting": "[7]", "value": 13.2, "unit": "ms"},
      {"measurement": "shift of the half-maximal activation voltage (ΔV1/2) of Nav1.5, whole-cell patch clamp, 200 nM Tst3", "setting": "[7]", "value": -8.66, "unit": "mV"},
      {"measurement": "increase of the fast inactivation time constant (Δτ) of Nav1.6, whole-cell patch clamp, 200 nM Tst3", "setting": "[8]", "value": 6.37, "unit": "ms"},
      {"measurement": "shift of the half-maximal activation voltage (ΔV1/2) of Nav1.6, whole-cell patch clamp, 200 nM Tst3", "setting": "[8]", "value": -3.82, "unit": "mV"},
      {"measurement": "increase of the fast inactivation time constant (Δτ) of Nav1.7, activation protocol of the isoform screen, whole-cell patch clamp, 200 nM Tst3", "setting": "[9]", "value": 18.8, "unit": "ms"},
      {"measurement": "shift of the half-maximal activation voltage (ΔV1/2) of Nav1.7, whole-cell patch clamp, 200 nM Tst3", "setting": "[9]", "value": -8.55, "unit": "mV"},
      {"measurement": "delay of fast inactivation of Nav1.7 currents recorded at 0 mV, whole-cell patch clamp, 200 nM Tst3", "setting": "[2]", "value": 12.6, "unit": "ms"}
    ]}
  ]
}
